Assays:
[1] = target: Trypanosoma brucei cytidine deaminase (recombinant His tag fusion protein) (Trypanosoma brucei brucei (427 strain)); assay: SEC; gel filtration of purified recombinant TbCDA on Superdex 200, 50 mM phosphate buffer (pH 7.4) plus 150 mM NaCl, calibrated with molecular weight markers; 500 ul injected
purified protein [2] = substrate: Nc1ccn([C@H]2C[C@H](O)[C@@H](CO)O2)c(=O)n1; assay: purified protein; type: biochemical, Trypanosoma brucei; details: 50 mM Tris-HCl pH 7.5, 1 mM DTT, 0.125 μM enzyme
purified protein [3] = substrate: Nc1ccn([C@@H]2O[C@H](CO)[C@@H](O)[C@H]2O)c(=O)n1; assay: purified protein; type: biochemical, Trypanosoma brucei; details: 50 mM Tris-HCl pH 7.5, 1 mM DTT, 0.125 μM enzyme
purified protein [4] = substrate: Cc1cn([C@H]2C[C@H](O)[C@@H](CO)O2)c(=O)nc1N; assay: purified protein; type: biochemical, Trypanosoma brucei; details: 50 mM Tris-HCl pH 7.5, 1 mM DTT, 0.125 μM enzyme

Molecule | stoichiometry N [1] | Km (purified protein [2]) | Vmax (purified protein [2]) | kcat (purified protein [2]) | kcat/Km (purified protein [2]) | Km (purified protein [3]) | Vmax (purified protein [3]) | kcat (purified protein [3]) | kcat/Km (purified protein [3]) | Km (purified protein [4]) | Vmax (purified protein [4]) | kcat (purified protein [4]) | kcat/Km (purified protein [4])
Trypanosoma brucei cytidine deaminase (recombinant His tag fusion protein) (enzyme) | 4 |  |  |  |  |  |  |  |  |  |  |  | 
TbCDA (Trypanosoma brucei brucei TREU927) (protein) MQCSSLKTGCLKLLSQLPEGLQQAGRTAVSAHQRSYCPYSNFAVGAALLHDDGKVTSGCNYETCVYKGTCAEACAIVKANMDGYRTAQAVAIYGRSVLPTAAAAAADATVPPCGFCRQLLAEVADLSGNMNDFLVVLVTFDQEHARLFRLSELLPQPFGPSSIGMDVAALATGEHSRCPGTF |  | 52.3 ± 4.5 µM | 34.9 µmol/min/mg | 12.4 ± 0.293 s⁻¹ | 238000 M⁻¹ s⁻¹ | 199.5 ± 9.0 µM | 126 µmol/min/mg | 44.8 ± 1.2 s⁻¹ | 225000 M⁻¹ s⁻¹ | 24.5 ± 3.3 µM | 5.9 µmol/min/mg | 2.09 ± 0.08 s⁻¹ | 85000 M⁻¹ s⁻¹

From article PMC6686228, “Contribution of Cytidine Deaminase to Thymidylate Biosynthesis in Trypanosoma brucei: Intracellular Localization and Properties of the Enzyme” (mSphere, 2019)
